Results on one molecule are retold here after article PMC4873337.

For the series, the target named is WT p45 Tcf1 (UniProt Q00417 1-419). Nature of the series: EMSA. In general terms: Mobility shift assays separate free from complexed probe on a gel.
Chain of WT p45 Tcf1 (Q00417 whole entry): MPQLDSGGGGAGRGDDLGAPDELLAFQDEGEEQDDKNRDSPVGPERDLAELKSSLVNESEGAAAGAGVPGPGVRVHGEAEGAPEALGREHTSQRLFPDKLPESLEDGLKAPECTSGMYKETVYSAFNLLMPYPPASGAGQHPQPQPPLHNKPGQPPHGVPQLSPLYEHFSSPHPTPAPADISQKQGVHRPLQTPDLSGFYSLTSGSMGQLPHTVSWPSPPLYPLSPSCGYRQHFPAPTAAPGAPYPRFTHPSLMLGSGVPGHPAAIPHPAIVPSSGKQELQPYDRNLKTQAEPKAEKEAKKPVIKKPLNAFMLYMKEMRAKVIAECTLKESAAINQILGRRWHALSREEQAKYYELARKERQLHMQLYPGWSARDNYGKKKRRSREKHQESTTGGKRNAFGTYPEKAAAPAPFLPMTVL

B1: TOP probe (dsDNA)
DNA 1: GATCTAGGGCACCCTTTGAAGCTCT
DNA 2: AGAGCTTCAAAGGGTGCCCTAGATC
Consider B1, for which the binding result is reported as “binds”.
